From patent US20120316071A1 (published 2012)
Positions count from the first letter of the chain named. In names and notes the source's numbering stands.

Key:
[1] = target: T1, rHuman EGF R/Fc Chimera, CF (R&D Systems Cat#344-ER) (human, UniProt P00533 25-645); assay: ECL multispot (MSD) assay, antigen spotted on plate; blank spot of this row 511
T1 construct: Bought recombinant protein; also called epidermal growth factor receptor; Fc part of the bought chimera not given

[2] = target: T2, rHuman Erythropoietin R/Fc Chimera, CF (R&D Systems Cat#963-ER) (human, UniProt P19235 25-250); assay: as above
T2 construct: Bought recombinant protein; also called EPO R; EPO R/Fc; Fc part of the bought chimera not given
T2 sequence (looked up): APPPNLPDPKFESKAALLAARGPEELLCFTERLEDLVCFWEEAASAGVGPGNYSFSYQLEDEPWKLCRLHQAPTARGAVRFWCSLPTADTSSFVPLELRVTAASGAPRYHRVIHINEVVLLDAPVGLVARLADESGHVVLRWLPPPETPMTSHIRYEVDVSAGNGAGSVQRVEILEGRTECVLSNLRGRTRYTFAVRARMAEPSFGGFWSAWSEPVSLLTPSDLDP

[3] = target: T3, rHuman Notch-1/Fc Chimera, CF (R&D Systems Cat#3647-TK) (human, UniProt P46531 19-526); assay: as above
T3 construct: Bought recombinant protein; Fc part of the bought chimera not given

[4] = target: T4, rHuman P-Cadherin/Fc Chimera, CF (R&D Systems Cat#861-PC) (human, UniProt P22223 108-654); assay: as above
T4 construct: Bought recombinant protein; Fc part of the bought chimera not given

[5] = target: T5, Recombinant Human DLL4 (R&D Systems Cat#1506-D4/CF) (human, UniProt Q9NR61 27-524); assay: as above
T5 construct: Bought recombinant protein; also called delta-like protein 4; rHuman DLL4

[6] = target: T6, rHuman CD44/Fc Chimera, CF (R&D Systems Cat#3660-CD) (human, UniProt P16070 21-220); assay: as above
T6 construct: Bought recombinant protein; Fc part of the bought chimera not given

[7] = target: T7, rHuman ErbB2/Fc Chimera, CF (R&D Systems Cat#1129-ER) (human, UniProt P04626 23-652); assay: as above
T7 construct: Bought recombinant protein; also called human epidermal growth factor 2 receptor; Fc part of the bought chimera not given

[8] = target: T8, rHuman HGF R/c-MET/Fc Chimera, CF (R&D Systems Cat#358-MT/CF) (human, UniProt P08581 25-932); assay: as above
T8 construct: Bought recombinant protein; also called HGF R/Fc; hepatocyte growth factor receptor; Fc part of the bought chimera not given
T8 sequence (P08581 25-932, change not shown): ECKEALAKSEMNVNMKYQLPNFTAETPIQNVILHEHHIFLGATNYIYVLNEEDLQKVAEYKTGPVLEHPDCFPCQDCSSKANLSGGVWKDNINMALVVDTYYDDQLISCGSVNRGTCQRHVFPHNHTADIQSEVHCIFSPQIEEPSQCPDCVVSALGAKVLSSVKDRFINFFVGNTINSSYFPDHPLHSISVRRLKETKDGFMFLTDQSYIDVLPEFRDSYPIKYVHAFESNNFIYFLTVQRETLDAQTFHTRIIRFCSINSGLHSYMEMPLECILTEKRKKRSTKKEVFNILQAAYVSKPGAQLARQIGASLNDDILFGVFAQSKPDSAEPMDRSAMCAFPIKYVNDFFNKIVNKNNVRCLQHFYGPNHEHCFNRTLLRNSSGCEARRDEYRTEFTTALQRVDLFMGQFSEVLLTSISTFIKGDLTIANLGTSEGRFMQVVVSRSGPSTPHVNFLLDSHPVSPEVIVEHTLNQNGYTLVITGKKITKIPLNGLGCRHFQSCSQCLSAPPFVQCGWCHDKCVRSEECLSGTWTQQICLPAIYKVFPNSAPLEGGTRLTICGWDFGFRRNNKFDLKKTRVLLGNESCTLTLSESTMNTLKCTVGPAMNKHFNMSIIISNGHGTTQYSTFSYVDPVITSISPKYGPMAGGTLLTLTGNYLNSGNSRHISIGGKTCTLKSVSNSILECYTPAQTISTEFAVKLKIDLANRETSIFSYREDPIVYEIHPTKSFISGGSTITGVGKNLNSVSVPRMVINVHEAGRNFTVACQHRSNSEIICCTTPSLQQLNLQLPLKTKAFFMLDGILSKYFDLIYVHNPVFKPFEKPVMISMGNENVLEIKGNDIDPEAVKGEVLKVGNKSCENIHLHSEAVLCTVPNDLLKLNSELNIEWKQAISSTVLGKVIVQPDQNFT

[9] = target: T9, rHuman IGF-1 sR, (IGF-1 sR), CF (R&D Systems Cat#391-GR) (human, UniProt P08069 31-932); assay: as above
T9 construct: Bought recombinant soluble receptor; also called insulin-like growth factor-1 soluble receptor

[10] = target: T10, rHuman HGF R/c-MET/Fc Chimera, CF (human, UniProt P08581 25-932); assay: ECL multispot (MSD) assay, antigen spotted on the plate, Fab in solution; blank spot of the same well 298
T10 construct: Bought from R&D Systems; also called HGF R/Fc; hepatocyte growth factor receptor; Fc part of the bought chimera not given
T10 sequence (P08581 25-932, change not shown): as above

[11] = target: T11, rHuman P-Cadherin/Fc Chimera, CF (human, UniProt P22223 108-654); assay: as above
T11 construct: Bought from R&D Systems; Fc part of the bought chimera not given

[12] = target: T12, rHuman CD44/Fc Chimera, CF (human, UniProt P16070 21-220); assay: as above
T12 construct: Bought from R&D Systems; Fc part of the bought chimera not given

[13] = target: T13, rHuman Notch-1/Fc Chimera, CF (human, UniProt P46531 19-526); assay: as above
T13 construct: Bought from R&D Systems; Fc part of the bought chimera not given

[14] = target: T14, rHuman ErbB2/Fc Chimera, CF (human, UniProt P04626 23-652); assay: as above
T14 construct: Bought from R&D Systems; also called human epidermal growth factor 2 receptor; Fc part of the bought chimera not given

[15] = target: T15, rHuman Erythropoietin R/Fc Chimera, CF (human, UniProt P19235 25-250); assay: as above
T15 construct: Bought from R&D Systems; also called EPO R; EPO R/Fc; Fc part of the bought chimera not given
T15 sequence (looked up): T2 sequence (looked up)

Recombinant Human DLL4 = target: T16, Recombinant Human DLL4 (human, UniProt Q9NR61 27-524); assay: as above
T16 construct: Bought from R&D Systems; also called delta-like protein 4; rHuman DLL4

[16] = target: T17, rHuman IGF-1 sR, (IGF-1 sR), CF (human, UniProt P08069 31-932); assay: as above
T17 construct: Bought from R&D Systems as a soluble receptor; also called insulin-like growth factor-1 soluble receptor

[17] = target: T18, rHuman EGF R/Fc Chimera, CF (human, UniProt P00533 25-645); assay: as above
T18 construct: Bought from R&D Systems; also called epidermal growth factor receptor; Fc part of the bought chimera not given

[18] = target: T1, rHuman EGF R/Fc Chimera, CF (R&D …); assay: ECL multispot (MSD) assay, antigen spotted on plate; blank spot of this row 294
[19] = target: T2, rHuman Erythropoietin R/Fc Chimera, CF …; assay: as above
[20] = target: T3, rHuman Notch-1/Fc Chimera, CF (R&D …); assay: as above
[21] = target: T4, rHuman P-Cadherin/Fc Chimera, CF (R&D …); assay: as above
[22] = target: T5, Recombinant Human DLL4 (R&D Systems …); assay: as above
[23] = target: T6, rHuman CD44/Fc Chimera, CF (R&D Systems …); assay: as above
[24] = target: T7, rHuman ErbB2/Fc Chimera, CF (R&D …); assay: as above
[25] = target: T8, rHuman HGF R/c-MET/Fc Chimera, CF (R&D …); assay: as above
[26] = target: T9, rHuman IGF-1 sR, (IGF-1 sR), CF (R&D …); assay: as above
[27] = target: T1, rHuman EGF R/Fc Chimera, CF (R&D …); assay: ECL multispot (MSD) assay, antigen spotted on plate; blank spot of this row 332
[28] = target: T2, rHuman Erythropoietin R/Fc Chimera, CF …; assay: as above
[29] = target: T3, rHuman Notch-1/Fc Chimera, CF (R&D …); assay: as above
[30] = target: T4, rHuman P-Cadherin/Fc Chimera, CF (R&D …); assay: as above
[31] = target: T5, Recombinant Human DLL4 (R&D Systems …); assay: as above
[32] = target: T6, rHuman CD44/Fc Chimera, CF (R&D Systems …); assay: as above
[33] = target: T7, rHuman ErbB2/Fc Chimera, CF (R&D …); assay: as above
[34] = target: T8, rHuman HGF R/c-MET/Fc Chimera, CF (R&D …); assay: as above
[35] = target: T9, rHuman IGF-1 sR, (IGF-1 sR), CF (R&D …); assay: as above

B1: Fab VH1-46_IGHD6-6*01_IGHJ1*01 S102A/S103P/S104F/H111F (APFF) & L6_IGKJ1*01 S31K (Fab, V domains shown)
VH: QVQLVQSGAEVKKPGASVKVSCKASGYTFTSYYMHWVRQAPGQGLEWMGIINPSGGSTSYAQKFQGRVTMTRDTSTSTVYMELSSLRSEDTAVYYCAREEYAPFSAEYFQFWGQGTLVTVSS
VL: EIVLTQSPATLSLSPGERATLSCRASQSVSKYLAWYQQKPGQAPRLLIYDASNRATGIPARFSGSGSGTDFTLTISSLEPEDFAVYYCQQRSNWPPWTFGQGTKVEIKR
notes: Fab made in E. coli: VH cloned into Plasmid A (CH1, His6 and Flag tags), kappa VL into Plasmid C (kappa CL); also called APFF / S31K
[1]
  ECL signal: 355
[2]
  ECL signal: 522
[3]
  ECL signal: 334
[4]
  ECL signal: 471
[5]
  ECL signal: 179000
[6]
  ECL signal: 370
[7]
  ECL signal: 262
[8]
  ECL signal: 221
[9]
  ECL signal: 505

B2: Fab VH1-46_IGHD6-6*01_IGHJ1*01 S102A/S103P/S104F/H111F (APFF) & L6_IGKJ1*01 S31R (Fab, V domains shown)
VH: B1 VH
VL: B1 VL with K31R
notes: Tested as an E. coli Fab; The heavy chain carries CH1 with His6 and Flag tags from plasmid A, the light chain a kappa CL from plasmid C; also called APFF / S31R; H:APFF & L6_IGKJ1*01 S31R
[10]
  ECL signal: 261
[11]
  ECL signal: 270
[12]
  ECL signal: 423
[13]
  ECL signal: 358
[14]
  ECL signal: 313
[15]
  ECL signal: 465
Recombinant Human DLL4
  ECL signal: 166000
[16]
  ECL signal: 374
[17]
  ECL signal: 331

B3: Fab VH1-46_IGHD6-6*01_IGHJ1*01 S102A/S103P/S104F/H111F (APFF) & L6_IGKJ1*01 S31N (Fab, V domains shown)
VH: B1 VH
VL: B1 VL with K31N
notes: Fab made in E. coli: VH cloned into Plasmid A (CH1, His6 and Flag tags), kappa VL into Plasmid C (kappa CL); also called APFF / S31N
[18]
  ECL signal: 246
[19]
  ECL signal: 363
[20]
  ECL signal: 267
[21]
  ECL signal: 342
[22]
  ECL signal: 178000
[23]
  ECL signal: 384
[24]
  ECL signal: 197
[25]
  ECL signal: 300
[26]
  ECL signal: 379

B4: Fab VH1-46_IGHD6-6*01_IGHJ1*01 S102A/S103P/S104F/H111F (APFF) & L6_IGKJ1*01 S31T (Fab, V domains shown)
VH: B1 VH
VL: B1 VL with K31T
notes: Fab made in E. coli: VH cloned into Plasmid A (CH1, His6 and Flag tags), kappa VL into Plasmid C (kappa CL); also called APFF / S31T
[27]
  ECL signal: 351
[28]
  ECL signal: 423
[29]
  ECL signal: 261
[30]
  ECL signal: 332
[31]
  ECL signal: 191000
[32]
  ECL signal: 384
[33]
  ECL signal: 285
[34]
  ECL signal: 432
[35]
  ECL signal: 303
